Measured values taken from article PMC4344528, “Structural role of the flanking DNA in mariner transposon excision” (Nucleic Acids Research, 2015).

Molecular target: the molecule itself
Experiment: crystal structure; pre-TS cleavage Mos1 paired-end complex: T216A/D249A transposase mixed equimolar with ds IR DNA substrate; hanging-drop vapour diffusion, 100 mM ammonium acetate, 20 mM MgCl2, 50 mM HEPES pH 7.0, 5% PEG 8000; 3.09 Å, C222(1)

B1: T216A/D249A Mos1 transposase double mutant (enzyme)
chain: MSSFVPNKEQTRTVLIFCFHLKKTAAESHRMLVEAFGEQVPTVKKCERWFQRFKSGDFDVDDKEHGKPPKRYEDAELQALLDEDDAQTQKQLAEQLEVSQQAVSNRLREMGKIQKVGRWVPHELNERQMERRKNTCEILLSRYKRKSFLHRIVTGDEKWIFFVSPKRKKSYVDPGQPATSTARPNRFGKKTMLCVWWDQSGVIYYELLKRGETVNAARYQQQLINLNRALQRKRPEYQKRQHRVIFLHANAPSHTARAVRDTLETLNWEVLPHAAYSPDLAPSDYHLFASMGHALAEQRFDSYESVKKWLDEWFAAKDDEFYWRGIHKLPERWEKCVASDGKY
notes: mariner Mos1 transposase, from the codon-optimized Mos1 gene; T216A allows soluble expression in E. coli, D249A is the active site mutation; Crystallised as a paired-end complex (PEC): a transposase dimer with two DNA substrates (33 nt transferred strand, 25 nt non-transferred strand); PDB 3HOS is the post-cleavage PEC of the parent transposase, without D249A; also called T216A/D249A mutant …
stoichiometry N: 2
